Measurements published in patent US20140303084A1 (Biogen, published 2014).
Square brackets hold non-standard residues; d marks the D form. Ends that are not written are not given here. NMeW = CN[C@@H](Cc1c[nH]c2ccccc12)C(=O)O; NMeY = CN[C@@H](Cc1ccc(O)cc1)C(=O)O; NMeF = CN[C@@H](Cc1ccccc1)C(=O)O; NMeT = CN[C@H](C(=O)O)[C@@H](C)O; NMeL = CN[C@@H](CC(C)C)C(=O)O; NMeK = CN[C@@H](CCCCN)C(=O)O; NMeS = CN[C@@H](CO)C(=O)O; NMeA = CN[C@@H](C)C(=O)O; Orn = NCCC[C@H](N)C(=O)O; Dab = NCC[C@H](N)C(=O)O; Dap = NC[C@H](N)C(=O)O

B1: KLT-Glu-LASY-Dab-WLF (peptide)
peptide: KLTELASY[Dab]WLF
modifications: not fully specified; printed as KLT-Glu-LASY-Dab-WLF
B2: KLTCLASYAWLF (peptide)
peptide: KLTCLASYAWLF
B3: KKKKLTCLASYCWLFKKK (peptide)
peptide: KKKKLTCLASYCWLFKKK
B4: RRRKLTCLASYCWLFRRR (peptide)
peptide: RRRKLTCLASYCWLFRRR
B5: KLACLASYCWLF (peptide)
peptide: KLACLASYCWLF
B6: K-MeLeu-TCLASYCWLF (peptide)
peptide: K[NMeL]TCLASYCWLF
modifications: cysteine pairing not given here
B7: KKTCLASYCWLF (peptide)
peptide: KKTCLASYCWLF
B8: KLT-Orn-LASY-Glu-WLF-CONH2 (peptide)
peptide: KLT[Orn]LASYEWLF-NH2
modifications: N-terminus assumed
SMILES: CC(C)C[C@H](NC(=O)[C@H](CCCN)NC(=O)[C@@H](NC(=O)[C@H](CC(C)C)NC(=O)[C@@H](N)CCCCN)[C@@H](C)O)C(=O)N[C@@H](C)C(=O)N[C@@H](CO)C(=O)N[C@@H](Cc1ccc(O)cc1)C(=O)N[C@@H](CCC(=O)O)C(=O)N[C@@H](Cc1c[nH]c2ccccc12)C(=O)N[C@@H](CC(C)C)C(=O)N[C@@H](Cc1ccccc1)C(N)=O
B9: ALTCLAAYCALF (peptide)
peptide: ALTCLAAYCALF
B10: CLASYCWLF (peptide)
peptide: CLASYCWLF
B11: KLTCLASYCW (peptide)
peptide: KLTCLASYCW
B12: KLTCLA-MeSer-YCWLF (peptide)
peptide: KLTCLA[NMeS]YCWLF
modifications: cysteine pairing not given here
B13: ALTCLASYCWLF (peptide)
peptide: ALTCLASYCWLF
B14: KLTC-MeLeu-ASYCWLF (peptide)
peptide: KLTC[NMeL]ASYCWLF
modifications: cysteine pairing not given here
B15: KLT-Dap-LASY-Glu-WLF (peptide)
peptide: KLT[Dap]LASYEWLF
modifications: not fully specified; printed as KLT-Dap-LASY-Glu-WLF
B16: KLTCLASyCWLF (peptide)
peptide: KLTCLAS[dY]CWLF
modifications: not fully specified (bridges); printed as KLTCLASyCWLF; cysteine pairing not given here
B17: KLTCLASYcWLF (peptide)
peptide: KLTCLASY[dC]WLF
modifications: cysteine pairing not given here
B18: KLTCLaSYCWLF (peptide)
peptide: KLTCL[dA]SYCWLF
modifications: not fully specified (bridges); printed as KLTCLaSYCWLF; cysteine pairing not given here
B19: KLTCLASYCW-MeLeu-F (peptide)
peptide: KLTCLASYCW[NMeL]F
modifications: cysteine pairing not given here
B20: KLT-Lys-LASY-Glu-WLF (peptide)
peptide: KLTKLASYEWLF
B21: KLTCLASY-Pen-WLF (peptide)
peptide: KLTCLASYXWLF
modifications: not fully specified; Pen 9
B22: TCLASYCWLF (peptide)
peptide: TCLASYCWLF
B23: KLTALASYCWLF (peptide)
peptide: KLTALASYCWLF
B24: AIGTWFLWCYSALCTLKGPARR (retro) (peptide)
peptide: AIGTWFLWCYSALCTLKGPARR
modifications: not fully specified; printed as AIGTWFLWCYSALCTLKGPARR (retro); cysteine pairing not given here
B25: KLTCLASYCWL-MePhe (peptide)
peptide: KLTCLASYCWL[NMeF]
modifications: cysteine pairing not given here
B26: MeLys-LTCLASYCWLF (peptide)
peptide: [NMeK]LTCLASYCWLF
modifications: cysteine pairing not given here
B27: KLTCLASACWLF (peptide)
peptide: KLTCLASACWLF
B28: KLTCLASYCALF (peptide)
peptide: KLTCLASYCALF
B29: KLTCLASYCWLA (peptide)
peptide: KLTCLASYCWLA
B30: KLTCL-MeAla-SYCWLF (peptide)
peptide: KLTCL[NMeA]SYCWLF
modifications: cysteine pairing not given here
B31: KLTSLASYSWLF (peptide)
peptide: KLTSLASYSWLF
B32: KLT-Pen-LASYCWLF (peptide)
peptide: KLTXLASYCWLF
modifications: not fully specified; Pen 4
B33: KLTCLASYC-MeTrp-LF (peptide)
peptide: KLTCLASYC[NMeW]LF
modifications: cysteine pairing not given here
B34: KATCLASYCWLF (peptide)
peptide: KATCLASYCWLF
B35: KLT-Glu-LASY-Dap-WLF (peptide)
peptide: KLTELASY[Dap]WLF
modifications: not fully specified; printed as KLT-Glu-LASY-Dap-WLF
B36: KLTALASYAWLF (peptide)
peptide: KLTALASYAWLF
B37: KAACLASACWLA (peptide)
peptide: KAACLASACWLA
B38: KLT-Glu-LASY-Orn-WLF (peptide)
peptide: KLTELASY[Orn]WLF
modifications: not fully specified; printed as KLT-Glu-LASY-Orn-WLF
B39: KLTCLASYC (peptide)
peptide: KLTCLASYC
B40: aigtwflwcysalctlkgparr (retro-inverso) (peptide)
peptide: [dA][dI]G[dT][dW][dF][dL][dW][dC][dY][dS][dA][dL][dC][dT][dL][dK]G[dP][dA][dR][dR]
modifications: cysteine pairing not given here; also: retro-inverso
B41: KL-MeThr-CLASYCWLF (peptide)
peptide: KL[NMeT]CLASYCWLF
modifications: cysteine pairing not given here
B42: rrapgkltclasycwlfwtgia (inverso) (peptide)
peptide: [dR][dR][dA][dP]G[dK][dL][dT][dC][dL][dA][dS][dY][dC][dW][dL][dF][dW][dT]G[dI][dA]
modifications: not fully specified; printed as rrapgkltclasycwlfwtgia (inverso); cysteine pairing not given here
B43: compound 10 (peptide)
peptide: [dK][NMeL]TCLASYCWLFWTGIA-NH2
modifications: cysteine pairing not given here
B44: kLTCLASYCWLF (peptide)
peptide: [dK]LTCLASYCWLF
modifications: not fully specified; cysteine pairing not given here
B45: KLTCLAS-MeTyr-CWLF (peptide)
peptide: KLTCLAS[NMeY]CWLF
modifications: cysteine pairing not given here
B46: KLTCLASYCWLf (peptide)
peptide: KLTCLASYCWL[dF]
modifications: cysteine pairing not given here
B47: KKLTCLASYCWLF (peptide)
peptide: KKLTCLASYCWLF
B48: KLTCLAsYCWLF (peptide)
peptide: KLTCLA[dS]YCWLF
modifications: cysteine pairing not given here
B49: KLTCKASYCWLF (peptide)
peptide: KLTCKASYCWLF
B50: KLT-Orn-LASY-Glu-WLF-COOH (peptide)
peptide: KLT[Orn]LASYEWLF-OH
modifications: N-terminus assumed
SMILES: CC(C)C[C@H](NC(=O)[C@H](CCCN)NC(=O)[C@@H](NC(=O)[C@H](CC(C)C)NC(=O)[C@@H](N)CCCCN)[C@@H](C)O)C(=O)N[C@@H](C)C(=O)N[C@@H](CO)C(=O)N[C@@H](Cc1ccc(O)cc1)C(=O)N[C@@H](CCC(=O)O)C(=O)N[C@@H](Cc1c[nH]c2ccccc12)C(=O)N[C@@H](CC(C)C)C(=O)N[C@@H](Cc1ccccc1)C(=O)O
B51: KLTCAASYCWLF (peptide)
peptide: KLTCAASYCWLF

Each binder was assayed against human Factor IXa (human, UniProt P00740 47-191; P00740 227-461) (assay: cell-based or functional assay).

B1 and B2 cannot be ordered by “EC50 [µM], FXa generation assay” value: over 1 µM for the first, over 1 µM for the second.

B3 and B4 cannot be ordered by “EC50 [µM], FXa generation assay” value: over 5 µM for the first, over 1 µM for the second.

B5 and B6 cannot be ordered by “EC50 [µM], FXa generation assay” value: under 0.5 µM for the first, under 0.5 µM for the second.

First: B7
Second: B8
The “EC50 [µM], FXa generation assay” value of the first is higher: over 50 µM for the first, under 0.5 µM for the second.

B9 and B10 cannot be ordered by “EC50 [µM], FXa generation assay” value: over 1 µM for the first, over 20 µM for the second.

B11 and B12 cannot be ordered by “EC50 [µM], FXa generation assay” value: over 10 µM for the first, over 20 µM for the second.

B13 and B14 cannot be ordered by “EC50 [µM], FXa generation assay” value: over 1 µM for the first, over 20 µM for the second.

Going from B15 to B16, the “EC50 [µM], FXa generation assay” value rises from under 0.5 µM to over 5 µM.

B17 and B18 cannot be ordered by “EC50 [µM], FXa generation assay” value: over 1 µM for the first, over 5 µM for the second.

Compared with B19, B20 is lower in “EC50 [µM], FXa generation assay” value: over 1 µM for the first, under 0.5 µM for the second.

First: B21
Second: B22
The “EC50 [µM], FXa generation assay” value of the first is higher: over 20 µM for the first, under 0.5 µM for the second.

B23 and B24 cannot be ordered by “EC50 [µM], FXa generation assay” value: over 1 µM for the first, over 1 µM for the second.

Compared with B25, B26 is lower in “EC50 [µM], FXa generation assay” value: over 1 µM for the first, under 0.5 µM for the second.

Compared with B27, B28 is higher in “EC50 [µM], FXa generation assay” value: under 0.5 µM for the first, over 1 µM for the second.

Compared with B29, B30 is higher in “EC50 [µM], FXa generation assay” value: under 0.5 µM for the first, over 20 µM for the second.

B31 and B32 cannot be ordered by “EC50 [µM], FXa generation assay” value: over 15 µM for the first, over 20 µM for the second.

Compared with B33, B34 is lower in “EC50 [µM], FXa generation assay” value: over 20 µM for the first, under 0.5 µM for the second.

Compared with B35, B36 is higher in “EC50 [µM], FXa generation assay” value: under 0.5 µM for the first, over 5.8 µM for the second.

Going from B37 to B38, the “EC50 [µM], FXa generation assay” value falls from over 20 µM to under 0.5 µM.

B39 and B40 cannot be ordered by “EC50 [µM], FXa generation assay” value: over 1 µM for the first, over 1 µM for the second.

B41 and B42 cannot be ordered by “EC50 [µM], FXa generation assay” value: under 0.5 µM for the first, under 0.5 µM for the second.

Going from B44 to B45, the “EC50 [µM], FXa generation assay” value rises from under 0.5 µM to over 20 µM.

Compared with B46, B47 is lower in “EC50 [µM], FXa generation assay” value: over 1 µM for the first, under 0.5 µM for the second.

B48 and B49 cannot be ordered by “EC50 [µM], FXa generation assay” value: over 1 µM for the first, over 1 µM for the second.

B50 and B51 cannot be ordered by “EC50 [µM], FXa generation assay” value: under 0.5 µM for the first, under 0.5 µM for the second.

In the case of B43, the “EC50 [µM], FXa generation assay with hFIXa” value is reported as under 0.5 µM.
